The source of these data is article PMC10786891, “Massively parallel profiling of RNA-targeting CRISPR-Cas13d”.

The labels stand for the following.
T1: EsCas13d, nuclease-dead (Eubacterium siraeum, UniProt B0MS50, R295A;H300A;R849A;H854A)
T1 sequence: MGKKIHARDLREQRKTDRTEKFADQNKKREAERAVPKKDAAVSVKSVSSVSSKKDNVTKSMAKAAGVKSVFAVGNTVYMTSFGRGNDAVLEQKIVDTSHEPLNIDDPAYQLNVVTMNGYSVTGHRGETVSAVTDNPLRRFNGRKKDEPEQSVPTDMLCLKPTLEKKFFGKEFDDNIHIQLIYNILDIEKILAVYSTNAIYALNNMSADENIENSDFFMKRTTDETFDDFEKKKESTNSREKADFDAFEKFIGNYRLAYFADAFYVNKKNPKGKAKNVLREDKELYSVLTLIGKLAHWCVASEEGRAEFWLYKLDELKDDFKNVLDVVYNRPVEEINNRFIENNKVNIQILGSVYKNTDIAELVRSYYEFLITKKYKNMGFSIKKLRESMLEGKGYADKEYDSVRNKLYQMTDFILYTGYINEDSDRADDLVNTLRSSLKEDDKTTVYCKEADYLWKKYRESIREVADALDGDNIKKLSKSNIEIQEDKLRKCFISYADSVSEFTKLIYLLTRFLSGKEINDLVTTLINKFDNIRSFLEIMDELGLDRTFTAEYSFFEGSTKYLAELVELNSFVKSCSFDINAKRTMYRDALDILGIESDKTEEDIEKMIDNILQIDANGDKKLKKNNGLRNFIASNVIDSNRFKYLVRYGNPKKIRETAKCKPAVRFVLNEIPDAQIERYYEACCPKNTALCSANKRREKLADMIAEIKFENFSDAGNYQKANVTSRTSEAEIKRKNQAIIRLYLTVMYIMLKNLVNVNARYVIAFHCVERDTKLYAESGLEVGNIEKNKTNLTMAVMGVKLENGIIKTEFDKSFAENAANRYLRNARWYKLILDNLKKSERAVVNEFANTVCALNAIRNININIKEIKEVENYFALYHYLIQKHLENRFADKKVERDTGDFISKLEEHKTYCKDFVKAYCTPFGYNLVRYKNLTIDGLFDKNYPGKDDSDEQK

B1: target 1 insU 3' of 22,insA 3' of 22 (mixed)
RNA 1: CACCCGUGCAAAAAUGCAGGGGUCUAAAACUGAGCGGAUAACCUCUCUAUGG
RNA 2: GGGAAUGGAUCCACAUCUACGAAUUCGUACUACAUAGAGAGGUUAUCCGCUCACCGAGAUCGGAAGAGCACACGU
B2: target 1 U11C,A20U (mixed)
RNA 1: CACCCGUGCAAAAAUGCAGGGGUCUAAAACUGAGCGGAUAACCUCUCUAUGG
RNA 2: GGGAAUGGAUCCACAUCUACGAAUUCGUACCUUAGAGAGGCUAUCCGCUCACCGAGAUCGGAAGAGCACACGU
B3: target 1 insG 3' of 9,insC 3' of 1 (mixed)
RNA 1: CACCCGUGCAAAAAUGCAGGGGUCUAAAACUGAGCGGAUAACCUCUCUAUGG
RNA 2: GGGAAUGGAUCCACAUCUACGAAUUCGUACCAUAGAGAGGUUAGUCCGCUCACCCGAGAUCGGAAGAGCACACGU
B4: target 1 insA 3' of 19,insA 3' of 4 (mixed)
RNA 1: CACCCGUGCAAAAAUGCAGGGGUCUAAAACUGAGCGGAUAACCUCUCUAUGG
RNA 2: GGGAAUGGAUCCACAUCUACGAAUUCGUACCAUAAGAGAGGUUAUCCGCAUCACCGAGAUCGGAAGAGCACACGU
B5: target 1 insG 3' of 7,insC 3' of 5 (mixed)
RNA 1: CACCCGUGCAAAAAUGCAGGGGUCUAAAACUGAGCGGAUAACCUCUCUAUGG
RNA 2: GGGAAUGGAUCCACAUCUACGAAUUCGUACCAUAGAGAGGUUAUCGCGCCUCACCGAGAUCGGAAGAGCACACGU
B6: target 1 insA 3' of 12,insA 3' of 11 (mixed)
RNA 1: CACCCGUGCAAAAAUGCAGGGGUCUAAAACUGAGCGGAUAACCUCUCUAUGG
RNA 2: GGGAAUGGAUCCACAUCUACGAAUUCGUACCAUAGAGAGGAUAUAUCCGCUCACCGAGAUCGGAAGAGCACACGU
B7: target 1 insG 3' of 6,insG 3' of 4 (mixed)
RNA 1: CACCCGUGCAAAAAUGCAGGGGUCUAAAACUGAGCGGAUAACCUCUCUAUGG
RNA 2: GGGAAUGGAUCCACAUCUACGAAUUCGUACCAUAGAGAGGUUAUCCGGCGUCACCGAGAUCGGAAGAGCACACGU
B8: target 1 G13A,A14C (mixed)
RNA 1: CACCCGUGCAAAAAUGCAGGGGUCUAAAACUGAGCGGAUAACCUCUCUAUGG
RNA 2: GGGAAUGGAUCCACAUCUACGAAUUCGUACCAUAGAGCAGUUAUCCGCUCACCGAGAUCGGAAGAGCACACGU
B9: target 1 G13A,G15U (mixed)
RNA 1: CACCCGUGCAAAAAUGCAGGGGUCUAAAACUGAGCGGAUAACCUCUCUAUGG
RNA 2: GGGAAUGGAUCCACAUCUACGAAUUCGUACCAUAGAUAAGUUAUCCGCUCACCGAGAUCGGAAGAGCACACGU
B10: target 1 U11C,G15A (mixed)
RNA 1: CACCCGUGCAAAAAUGCAGGGGUCUAAAACUGAGCGGAUAACCUCUCUAUGG
RNA 2: GGGAAUGGAUCCACAUCUACGAAUUCGUACCAUAGAAAGGCUAUCCGCUCACCGAGAUCGGAAGAGCACACGU
B11: target 1 insG 3' of 10,insG 3' of 8 (mixed)
RNA 1: CACCCGUGCAAAAAUGCAGGGGUCUAAAACUGAGCGGAUAACCUCUCUAUGG
RNA 2: GGGAAUGGAUCCACAUCUACGAAUUCGUACCAUAGAGAGGUUGAUGCCGCUCACCGAGAUCGGAAGAGCACACGU
B12: target 1 insC 3' of 19,insU 3' of 5 (mixed)
RNA 1: CACCCGUGCAAAAAUGCAGGGGUCUAAAACUGAGCGGAUAACCUCUCUAUGG
RNA 2: GGGAAUGGAUCCACAUCUACGAAUUCGUACCAUCAGAGAGGUUAUCCGUCUCACCGAGAUCGGAAGAGCACACGU
B13: target 1 C6A,U8G (mixed)
RNA 1: CACCCGUGCAAAAAUGCAGGGGUCUAAAACUGAGCGGAUAACCUCUCUAUGG
RNA 2: GGGAAUGGAUCCACAUCUACGAAUUCGUACCAUAGAGAGGUUAGCAGCUCACCGAGAUCGGAAGAGCACACGU
B14: target 1 insG 3' of 9,insC 3' of 5 (mixed)
RNA 1: CACCCGUGCAAAAAUGCAGGGGUCUAAAACUGAGCGGAUAACCUCUCUAUGG
RNA 2: GGGAAUGGAUCCACAUCUACGAAUUCGUACCAUAGAGAGGUUAGUCCGCCUCACCGAGAUCGGAAGAGCACACGU
B15: target 1 insU 3' of 17,insC 3' of 5 (mixed)
RNA 1: CACCCGUGCAAAAAUGCAGGGGUCUAAAACUGAGCGGAUAACCUCUCUAUGG
RNA 2: GGGAAUGGAUCCACAUCUACGAAUUCGUACCAUAGUAGAGGUUAUCCGCCUCACCGAGAUCGGAAGAGCACACGU
B16: target 1 insG 3' of 19,insA 3' of 7 (mixed)
RNA 1: CACCCGUGCAAAAAUGCAGGGGUCUAAAACUGAGCGGAUAACCUCUCUAUGG
RNA 2: GGGAAUGGAUCCACAUCUACGAAUUCGUACCAUGAGAGAGGUUAUCACGCUCACCGAGAUCGGAAGAGCACACGU
B17: target 1 insC 3' of 14,insU 3' of 7 (mixed)
RNA 1: CACCCGUGCAAAAAUGCAGGGGUCUAAAACUGAGCGGAUAACCUCUCUAUGG
RNA 2: GGGAAUGGAUCCACAUCUACGAAUUCGUACCAUAGAGACGGUUAUCUCGCUCACCGAGAUCGGAAGAGCACACGU
B18: target 1 G5C,C21A (mixed)
RNA 1: CACCCGUGCAAAAAUGCAGGGGUCUAAAACUGAGCGGAUAACCUCUCUAUGG
RNA 2: GGGAAUGGAUCCACAUCUACGAAUUCGUACAAUAGAGAGGUUAUCCCCUCACCGAGAUCGGAAGAGCACACGU
B19: target 1 insU 3' of 21,insU 3' of 21 (mixed)
RNA 1: CACCCGUGCAAAAAUGCAGGGGUCUAAAACUGAGCGGAUAACCUCUCUAUGG
RNA 2: GGGAAUGGAUCCACAUCUACGAAUUCGUACCUUAUAGAGAGGUUAUCCGCUCACCGAGAUCGGAAGAGCACACGU
B20: target 1 insC 3' of 14,insA 3' of 7 (mixed)
RNA 1: CACCCGUGCAAAAAUGCAGGGGUCUAAAACUGAGCGGAUAACCUCUCUAUGG
RNA 2: GGGAAUGGAUCCACAUCUACGAAUUCGUACCAUAGAGACGGUUAUCACGCUCACCGAGAUCGGAAGAGCACACGU
B21: target 1 G5A,G15C (mixed)
RNA 1: CACCCGUGCAAAAAUGCAGGGGUCUAAAACUGAGCGGAUAACCUCUCUAUGG
RNA 2: GGGAAUGGAUCCACAUCUACGAAUUCGUACCAUAGACAGGUUAUCCACUCACCGAGAUCGGAAGAGCACACGU
B22: target 1 insA 3' of 7,insU 3' of 5 (mixed)
RNA 1: CACCCGUGCAAAAAUGCAGGGGUCUAAAACUGAGCGGAUAACCUCUCUAUGG
RNA 2: GGGAAUGGAUCCACAUCUACGAAUUCGUACCAUAGAGAGGUUAUCACGUCUCACCGAGAUCGGAAGAGCACACGU
B23: target 1 A1G,U11G (mixed)
RNA 1: CACCCGUGCAAAAAUGCAGGGGUCUAAAACUGAGCGGAUAACCUCUCUAUGG
RNA 2: GGGAAUGGAUCCACAUCUACGAAUUCGUACCAUAGAGAGGGUAUCCGCUCGCCGAGAUCGGAAGAGCACACGU
B24: target 1 complement block 14-16 (mixed)
RNA 1: CACCCGUGCAAAAAUGCAGGGGUCUAAAACUGAGCGGAUAACCUCUCUAUGG
RNA 2: GGGAAUGGAUCCACAUCUACGAAUUCGUACCAUAGUCUGGUUAUCCGCUCACCGAGAUCGGAAGAGCACACGU
B25: target 1 C6A,U19G (mixed)
RNA 1: CACCCGUGCAAAAAUGCAGGGGUCUAAAACUGAGCGGAUAACCUCUCUAUGG
RNA 2: GGGAAUGGAUCCACAUCUACGAAUUCGUACCAGAGAGAGGUUAUCAGCUCACCGAGAUCGGAAGAGCACACGU
B26: target 1 insG 3' of 9,insG 3' of 4 (mixed)
RNA 1: CACCCGUGCAAAAAUGCAGGGGUCUAAAACUGAGCGGAUAACCUCUCUAUGG
RNA 2: GGGAAUGGAUCCACAUCUACGAAUUCGUACCAUAGAGAGGUUAGUCCGCGUCACCGAGAUCGGAAGAGCACACGU
B27: target 1 C7A,U8A (mixed)
RNA 1: CACCCGUGCAAAAAUGCAGGGGUCUAAAACUGAGCGGAUAACCUCUCUAUGG
RNA 2: GGGAAUGGAUCCACAUCUACGAAUUCGUACCAUAGAGAGGUUAAACGCUCACCGAGAUCGGAAGAGCACACGU

The data set deals with T1, EsCas13d, nuclease-dead. Description: crRNA (strand 1, pre-loaded); Mg2+; 40 mM Tris-HCl pH 7.5, 150 mM NaCl, 6 mM MgCl2, 1 mM DTT, 0.1% Tween-20, 0.2 mg/ml BSA; 25 C; 10 min per concentration, then washed. The following applies: tags: His6-TwinStrep-SUMO cleaved; N-terminal SNAP kept (SNAP-Surface 488); label: 3' end held by stalled T7 RNA polymerase.
As for B1, binding was put at a Kd of 4.11 ± 0.31 nM.
For the molecule B2, the Kd (commonly the concentration at which binding is half-saturated) came out at 55 ± 7 nM.
In turn, B3 yielded a Kd of 17.4 ± 1.2 nM.
B4 returned a Kd of 16 ± 1.3 nM.
Molecule B5 had a Kd of 9.8 ± 0.6 nM.
The value for B6 was 29 ± 5 nM; that for B7 was 8 ± 0.4 nM.
The result for B8 reads 12 ± 0.7 nM; that for B9, 80 ± 40 nM; that for B10, 27 ± 3.3 nM.
Molecule B11 had a Kd of 21.8 ± 0.7 nM.
For the molecule B12, the dissociation constant (Kd) was 39 ± 13 nM. This Kd lies about 1.8-fold higher than the previous one.
B13: the Kd amounted to 12.8 ± 0.7 nM. Against the preceding molecule, the Kd is about 3-fold lower.
The result for B14 reads 11.3 ± 0.5 nM; that for B15, 60 ± 14 nM; that for B16, 36.7 ± 2.9 nM.
B17 gave a Kd of 41 ± 8 nM.
As to B18, the affinity, expressed as Kd, was 27 ± 5 nM. Compared with the last molecule, the Kd is about 1.5-fold lower.
Regarding B19, the Kd came out at 72 ± 13 nM.
On to B20, for which the Kd worked out at 47 ± 10 nM.
The result for B21 reads 54 ± 17 nM; that for B22, 11.4 ± 0.33 nM; that for B23, 23.8 ± 1.6 nM.
B24 displayed a dissociation constant (Kd) of 61 ± 9 nM.
As for B25, the Kd stood at 46 ± 4 nM.
Consider B26, for which the Kd turned out to be 8.9 ± 0.6 nM.
In turn, B27 had a Kd of 7.41 ± 0.23 nM.
